Source: PMC3191170, “Epigenetic Control of Viral Life-Cycle by a DNA-Methylation Dependent Transcription Factor”

How the values were obtained:
Conditions in all cases: protein: ivt; chain copies: 2; label: 32P
Zta (BZLF1, ZEBRA, EB1) [1] = molecular target: T1, Zta (BZLF1, ZEBRA, EB1) (Epstein-Barr virus (B95-8 strain), UniProt P03206 1-245); test: EMSA; CpG methylated; EMSA with wheat germ in vitro translated Zta and 32P-labelled ds oligonucleotides; buffer, salt, pH and temperature not given (as in ref 39)
Zta (BZLF1, ZEBRA, EB1) [2] = molecular target: T1, Zta (BZLF1, ZEBRA, EB1); test: EMSA; EMSA with wheat germ in vitro translated Zta and 32P-labelled ds oligonucleotides; buffer, salt, pH and temperature not given (as in ref 39)
Zta (BZLF1, ZEBRA, EB1) [3] = molecular target: T1, Zta (BZLF1, ZEBRA, EB1); test: EMSA; unmethylated; class III; EMSA with wheat germ in vitro translated Zta and 32P-labelled ds oligonucleotides; buffer, salt, pH and temperature not given (as in ref 39)

T1 sequence (P03206 whole entry): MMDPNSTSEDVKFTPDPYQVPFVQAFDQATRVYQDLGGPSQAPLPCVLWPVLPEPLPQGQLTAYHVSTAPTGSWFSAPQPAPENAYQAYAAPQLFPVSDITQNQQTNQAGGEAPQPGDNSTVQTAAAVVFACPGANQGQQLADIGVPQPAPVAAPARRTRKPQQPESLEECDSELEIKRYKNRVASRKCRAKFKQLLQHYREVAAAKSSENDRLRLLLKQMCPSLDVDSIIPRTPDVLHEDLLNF

B1: Rp (-114) / CpG5 O, methylated (dsDNA)
DNA 1: CACTCATACTTAAGCGATGCTGATGCA
DNA 2: TGCATCAGCATCGCTTAAGTATGAGTG
modifications: 5mC at CpG, both strands (M.SssI or synthesis)
binding result (Zta (BZLF1, ZEBRA, EB1) [1]): binds

B2: Zp (-96) (dsDNA)
DNA 1: TAAATTTAGGTGTGTCTATGAGGTACA
DNA 2: TGTACCTCATAGACACACCTAAATTTA
binding result (Zta (BZLF1, ZEBRA, EB1) [2]): binds

B3: Rp (-114) / CpG5 O, unmethylated (dsDNA)
DNA 1: CACTCATACTTAAGCGATGCTGATGCA
DNA 2: TGCATCAGCATCGCTTAAGTATGAGTG
binding result (Zta (BZLF1, ZEBRA, EB1) [3]): no binding
